Paper PMC13254535, “The RecBCD complex interacts directly with the DNA sliding clamp in Escherichia coli” (Nucleic Acids Research, 2026)
Where two headings read alike, the source gives them in different places.

What was measured:
β-clamp [1] = biological target: T1, β-clamp (Escherichia coli, UniProt P0A988)
From the text: Protein–protein interactions between RecB and β-clamp, as well as between RecB and RecA, were examined using the bacterial adenylate cyclase-based two-hybrid (BACTH) system (Euromedex), as previously described, with optimizations noted below. This system relies on the functional reconstitution of Bordetella pertussis adenylate cyclase (CyaA) fragments T25 and T18, which are genetically fused to the proteins of interest. Upon interaction of the fusion partners, cAMP production is restored in the cyaA-deficient E. coli BTH101 strain, activating downstream reporters such as lacZ and mal operons. Co-transformants were tested using one or several of the following readouts: (i) qualitative X-gal spot assay, (ii) quantitative β-galactosidase assay, and (iii) semi-quantitative growth in M63 minimal medium with maltose.
Recipient strains (BTH101 or derivatives) were streaked from glycerol stock onto LB agar plates containing streptomycin (100 µg/ml), isopropyl β-D-1-thiogalactopyranoside (IPTG) (0.5 mM), and 5-bromo-4-chloro-3-indolyl β-D-galactopyranoside (X-gal) (40 µg/ml) and incubated at 37°C until cya⁺ (blue) revertants became visible among the cya⁻ (white) colonies. Multiple white colonies were picked and cultured overnight in LB with streptomycin (100 µg/ml) at 37°C. These cultures were diluted 1:50 and expanded before electroporation.
Transformed cells were immediately recovered in 1 ml SOC at 37°C for 1.5 h with shaking and plated on LB agar supplemented with appropriate antibiotics (Table 4). Plates were incubated at 30°C for up to 3 days.
Following selection, 3–5 colonies from each transformation plate were pooled to inoculate 1 ml LB containing IPTG (0.5 mM) and the appropriate antibiotics. Cultures were incubated overnight at 30°C with shaking. The same overnight culture was used to seed all subsequent assays. The following day, cultures were diluted 1:100 into fresh LB (containing IPTG and antibiotics) and grown at 30°C to mid-exponential phase (OD600 around 0.5–0.6, measured by Nanodrop One, Thermo Fisher Scientific Inc.) before use in assays.
The X-gal spot assay was used to visualize protein−protein interactions via blue/white colorimetric readout. Mid-log cultures were serially diluted (10-fold series), and 5 µl of each dilution (including undiluted) was spotted onto LB agar containing IPTG (0.5 mM), X-gal (40 µg/ml), and selective antibiotics. To assess interaction stability under genotoxic stress, an identical plate was exposed to UV light (15 J/m^2). Plates were incubated at 30°C for 2–3 days, and images were captured with a smartphone camera.
β-galactosidase activity was quantified using a modified Miller assay adapted for 96-well format. Cultures at OD600 around 0.5–0.6 were measured again in a plate reader (Victor Nivo, PerkinElmer, Waltham, MA, USA) to account for instrument variability. Cells were pelleted, resuspended in PM2 buffer (70 mM Na2HPO4, 30 mM NaH2PO4, 1 mM MgSO4, 0.2 mM MnSO4, and 100 mM β-mercaptoethanol), and permeabilized with 0.01% (w/v) sodium dodecyl sulfate (SDS) and 10% (v/v) toluene for 45 min at 37°C. […] Absorbance at 405 nm was recorded, and β-galactosidase activity calculated in Miller Units using the following equation: […]
This assay exploits the cAMP dependence of the mal regulon, allowing only cya^+ cells with interacting fusion proteins to grow on maltose as sole carbon source. […] Cultures were incubated in triplicate at 30°C with shaking, and OD600 was measured at 24, 48, and 72 h using a plate reader. […]

[2] = system: E. coli BTH101 ∆recB strain (IMR04); test: Ciprofloxacin survival assay (complementation of BTH101 ΔrecB); assay type: cell-based, Escherichia coli; settings: expressed from pUT18C in BTH101 ΔrecB; ciprofloxacin 2–16 ng/ml, 2 h, 37°C; CFU; 2 to 3 biological replicates
Description: Non-transformed BTH101 and BTH101 ∆recB served as positive and negative controls, respectively. All strains were cultured at 30°C to early exponential phase (OD600 around 0.2, measured by Nanodrop One) before treatment.
. Cultures were incubated at 37°C with shaking for 2 h. Following treatment, cells were pelleted by centrifugation and resuspended in fresh LB medium to remove residual antibiotic and halt exposure. Cultures were then serially diluted 10-fold, and 5 µl of each dilution was spotted onto LB agar plates. After overnight incubation at 30°C, CFUs were counted. […]

β-clamp [3] = biological target: T1, β-clamp; settings: 3-AT 0.5 mM; ~29 million interaction tests
From the text: Yeast-two hybrid screening was outsourced to Hybrigenics (Paris, France). This service employs a high-complexity E. coli prey library (∼3 × 10^7 clones) and follows a robust mating-based screening protocol to identify binary protein interactions. Full-length E. coli dnaN (encoding β-clamp) was cloned into the Gal4 DNA-binding domain expression vector pGBKT7, which carries LEU2 and TRP1 selection markers (bait plasmid). The dnaN bait was screened against an E. coli complementary DNA/genomic prey library provided by Hybrigenics, totaling ~29 million interaction tests. Transformants were selected on medium lacking leucine, tryptophan, and histidine, supplemented with 0.5 mM of 3-amino-1,2,4-triazole (3-AT) to suppress background growth. Positive interactions were confirmed and sequenced by Hybrigenics.

[4] = system: EH219 cells (GFP-β-clamp, RecB-HaloTag); settings: unchallenged; foci within 1 pixel (0.108 µm); three biological replicates
Description: Fixed cells with endogenously tagged recB and dnaN (strain EH219) were imaged. β-clamp was N-terminally tagged with green fluorescence protein (GFP) [48]
Strains were first grown overnight on LB-agar plates with kanamycin for selection. Then, 2 ml LB with kanamycin was inoculated with five plate colonies to create overnight cultures. The next day, overnight cultures were diluted 1:200 in fresh LB medium with kanamycin and cultured at 37°C until exponential growth (OD600 of 0.10). JF549-HTL (5 µM final concentration) was then added to the culture, and incubation continued for another 60 min for staining the RecB HaloTag, before washing five times with LB. […] Samples were fixed by resuspending and incubating them in PBS with 4% (v/w) formaldehyde for 60 min, followed by washing twice with PBS and resuspension in PBS for imaging.
Briefly, we used a Nikon Eclipse Ti2-E inverted microscope equipped with a 60× oil objective, a CrestOptics X-Light V3 spinning disk confocal module (50:400 µm spinning disk), a Lumencor Celeste multi-line laser and two Teledyne Photometrics Kinetix sCMOS cameras. […] Three channels were used for fluorescence imaging: a transmitted light channel for cell outlines (1 ms exposure), in addition to GFP and JF549 fluorescence channels imaged with a 50:400 µm spinning disk. […] The foci numbers per cell were quantified along with their colocalization. […]

T1 sequence (P0A988 whole entry, the tested form may be a part): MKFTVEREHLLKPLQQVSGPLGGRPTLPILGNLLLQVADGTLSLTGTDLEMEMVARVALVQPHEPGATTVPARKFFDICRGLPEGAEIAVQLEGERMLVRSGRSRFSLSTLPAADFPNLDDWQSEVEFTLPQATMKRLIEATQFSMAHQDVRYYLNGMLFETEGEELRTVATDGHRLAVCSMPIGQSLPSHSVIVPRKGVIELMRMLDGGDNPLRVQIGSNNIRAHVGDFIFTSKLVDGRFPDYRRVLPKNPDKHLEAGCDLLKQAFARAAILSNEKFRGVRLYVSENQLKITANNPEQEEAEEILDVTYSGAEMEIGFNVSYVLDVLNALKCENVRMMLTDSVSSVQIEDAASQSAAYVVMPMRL

B1: RecB: wild type RecB subunit of the E. coli RecBCD complex (T18 fusion, his-tagged or HaloTag according to test) (protein)
chain: MSDVAETLDPLRLPLQGERLIEASAGTGKTFTIAALYLRLLLGLGGSAAFPRPLTVEELLVVTFTEAATAELRGRIRSNIHELRIACLRETTDNPLYERLLEEIDDKAQAAQWLLLAERQMDEAAVFTIHGFCQRMLNLNAFESGMLFEQQLIEDESLLRYQACADFWRRHCYPLPREIAQVVFETWKGPQALLRDINRYLQGEAPVIKAPPPDDETLASRHAQIVARIDTVKQQWRDAVGELDALIESSGIDRRKFNRSNQAKWIDKISAWAEEETNSYQLPESLEKFSQRFLEDRTKAGGETPRHPLFEAIDQLLAEPLSIRDLVITRALAEIRETVAREKRRRGELGFDDMLSRLDSALRSESGEVLAAAIRTRFPVAMIDEFQDTDPQQYRIFRRIWHHQPETALLLIGDPKQAIYAFRGADIFTYMKARSEVHAHYTLDTNWRSAPGMVNSVNKLFSQTDDAFMFREIPFIPVKSAGKNQALRFVFKGETQPAMKMWLMEGESCGVGDYQSTMAQVCAAQIRDWLQAGQRGEALLMNGDDARPVRASDISVLVRSRQEAAQVRDALTLLEIPSVYLSNRDSVFETLEAQEMLWLLQAVMTPERENTLRSALATSMMGLNALDIETLNNDEHAWDVVVEEFDGYRQIWRKRGVMPMLRALMSARNIAENLLATAGGERRLTDILHISELLQEAGTQLESEHALVRWLSQHILEPDSNASSQQMRLESDKHLVQIVTIHKSKGLEYPLVWLPFITNFRVQEQAFYHDRHSFEAVLDLNAAPESVDLAEAERLAEDLRLLYVALTRSVWHCSLGVAPLVRRRGDKKGDTDVHQSALGRLLQKGEPQDAAGLRTCIEALCDDDIAWQTAQTGDNQPWQVNDVSTAELNAKTLQRLPGDNWRVTSYSGLQQRGHGIAQDLMPRLDVDAAGVASVVEEPTLTPHQFPRGASPGTFLHSLFEDLDFTQPVDPNWVREKLELGGFESQWEPVLTEWITAVLQAPLNETGVSLSQLSARNKQVEMEFYLPISEPLIASQLDTLIRQFDPLSAGCPPLEFMQVRGMLKGFIDLVFRHEGRYYLLDYKSNWLGEDSSAYTQQAMAAAMQAHRYDLQYQLYTLALHRYLRHRIADYDYEHHFGGVIYLFLRGVDKEHPQQGIYTTRPNAGLIALMDEMFAGMTLEEA
modifications: left off: T18 (Bordetella pertussis CyaA fragment), N-terminal, kept
For B1, the “interaction strength relative to RecB–RecC positive control” value (β-clamp [1]) was “comparable to the RecB–RecC positive control interaction”, the “interaction with β-clamp, β-galactosidase activity” value (β-clamp [1]) was “abolished” and the “interaction with β-clamp, β-galactosidase activity” value (β-clamp [1]; BTH101 wild-type and ΔrecB backgrounds, 24 h, relative to empty vector negative control) was “distinct interaction”. The “interaction with β-clamp, β-galactosidase activity” value (β-clamp [1]; BTH101 ΔrecA) was “initially appeared absent”, the “interaction with β-clamp, M63/maltose growth” value (β-clamp [1]; BTH101 ΔrecA, M63/maltose variant, longer incubation) was “the interaction was apparent also in the ΔrecA strain” and the “survival after ciprofloxacin” value [2] was “fully restores ΔrecB strain survival to the wild-type strain (BTH101) level”. The “yeast two-hybrid interaction with β-clamp” value (β-clamp [3]) was “possible interaction” and the “cells showing RecB–β-clamp colocalization” value [4] was “around 32%”.
